What follows are binders tested against SARS-CoV-2 spike protein receptor binding domain (RBD), wild type (SARS-CoV-2, UniProt P0DTC2 319-539) (assay: ELISA, RBD protein coated on plate, antibody titrated).

Binder	EC50
C505 (antibody, V domains shown) VH: EVQLLESGGGLVQPGGSLRLSCADSGFSFSTYGMSWVRQAPGKGLEWVSTISGSGDNTYHADSVKGRFTISRDNSKNTLYLQMNSLRAEDTAVYYCAKNIAEMSTFDDYFYYYGMDVWGQGTTVTVSS VL: not shown	16 ng/mL
C507 (antibody, V domains shown) VH: EVQLVESGGGVVQPGRSLRLSCAASGFTFSSYAIHWVRQAPGKGLEWVAVISFDGSNKYYRDSVKGRFTISRDNGKNTLYLQMNSLRAEDTAVYYCAKAALGYCTNGVCYCDNWGQGTLVTVSS VL: NFMLTQPHSVSESPGKTVTISCTGSSGSIASNYVQWYQQRPGSAPTTVIYEDNQRPSGVPDRFSGSIDSSSNSASLSISGLKTEDEADYYCQSYDINSLWVFGGGTRLTVL	5.6 ng/mL
C509 (antibody, V domains shown) VH: QVQLQESGPGLVKPSGTLSLTCAVSGGSISSSNWWSWVRQPPGKGLEWIGEIYNSGSTNYNPSLKSRVTILVDKSKNQFSLKLSSVTAADTAVYYCAGSYSNYIGGVWFDPWGQGTLVTVSS VL: EIVLTQSPATLSLSPGERATLSCRASQSVSTYLAWYQQKPGQAPRLLIYDASNRATGIPARFSGSGSGTDFTLTISSLEPEDFAVYYCQQRNNWLTFGGGTKVEIK	4.44 ng/mL
C502 (antibody, V domains shown) VH: QVQLVQSGAEVKKPGSSVKVSCKASGDTFSSHAINWVRQAPGQGLEWMGRSIPMLGVTTSAQKFKGRVTITADHSTSTVFMDLSSLRSDDTAIYYCARGVVGATPGSFDLWGQGTMVTVSS VL: EIVMTQSPATLSVSPGKRATLSCRASQSVRSNLAWYQQRPGQAPRLLIYDAATRATGIPTRFSGSGSGTEFTLTISSLQSEDFAVYYCQQYDNGLTFGGGTKVEIK	6.48 ng/mL
C503 (antibody, V domains shown) VH: QVQLQESGPGLVQPSGTLSLSCTVTGGSISSNNWWSWVRQSPVKGLEWIGEIYHNGNINYNPSLKSRVTMSIDKSKNHFSLKLSSVTAADTAVYYCARGDVLDWFDPWGQGTLVTVS VL: QSALTQPASVSGSPGQSITFSCTGTSSDVGAYNYISWYQQHPGKAPKLMIYDVNNRPSGVSRRFSGSKSGNTASLTISGLQSEDEADYFCSSYAGNSTVRFGGGTKLTVL	6.55 ng/mL
C511 (antibody, V domains shown) VH: EVQLVESGGGLVQPGGSLRLSCAATEITVSSNYMTWVRQAPGKGLEWVSVIYPGGSTFYADSVKGRFSISRDNSKNTLYLQMNSLRAEDTAVYYCARDLVVYGLDCWGQGTLVTVSS VL: DIQLTQSPSFLSASVGDRVTITCRASQGISSYLAWYQQKPGKAPKLLIYAASTLQSGVPSRFSGSGSGTEFTLTISSLQPEDFATYYCQQLNTYPPPFGGGTKVEIK	1.33 ng/mL
C504 (antibody, V domains shown) VH: QVQLQESGPGLVKPSETLSLTCTVSGGSISSSYWNWIRQSPGKGLEWIGYIYYDGYTTFNPSLKSRVTISVDTSKNQFSLKLSSVTAADTAFYYCAAGLKGRSSSWYEYWGQGTLVTVSS VL: DIQMTQSPSSLSASVGDRVTITCRASQSISSYLNWYQQKPGKAPKLLIYATSSLQSGVPSRFSGSGSGTDFTLTITSLQPEDFATYYCQQTYSSPHTFGQGTKLEIK	9.08 ng/mL
C510 (antibody, V domains shown) VH: QVQLQQWGAGLLKPSETLSRTCAVYGGSFSGYYWSWFRQSPGKGLEWIGEINHSGSTNYNPSLKNRVTISVDTSKNQFSLMLSSVTAADTAVYYCARGGFGVVINYYYSGMDVWGRGTTVTVSS VL: not shown	308 ng/mL
C506 (antibody, V domains shown) VH: EVQLVESGGGLVQPGGSLRLSCAASGFTFSSYDMHWVRQGTGKGLEWVSVIGTAGDAYYPGSVKGRFTISRENAKNSLYLQMNSLRAGDTAVYYCARMVYDSSGFKGYFDLWGRGTLVTVSS VL: not shown	5.94 ng/mL

These binders were tested against SARS-CoV-2 spike protein receptor binding domain (RBD) (SARS-CoV-2, UniProt P0DTC2 319-539) (assay: ELISA on coated RBD protein).

Binder	EC50
C519 (antibody, V domains shown) VH: QVQLQESGPGLVKPSETLSLTCAVSGGSISSYYWSWIRQPPGKGLEWIGYIDTSGSTNYNPSLKSRVTMSVDTSKNQFSLNVNSVTAADTAVYFCGVCAGDCYAASVFDYRGQGTLVTVSS VL: DIQMTQSPSSLSASVGDRVTITCQASQDIIFYLNWYQQKPGKAPKLLIYDASNLKTGVPSRFSGSGSGTDFAFTISSLQPEDIATYYCQQYDNLPLTFGGGTKVEIK	1.07 ng/mL
